Target: T1, C-RapL (purified domain) (human)
T1 sequence (Q8WWW0 whole entry, looked up): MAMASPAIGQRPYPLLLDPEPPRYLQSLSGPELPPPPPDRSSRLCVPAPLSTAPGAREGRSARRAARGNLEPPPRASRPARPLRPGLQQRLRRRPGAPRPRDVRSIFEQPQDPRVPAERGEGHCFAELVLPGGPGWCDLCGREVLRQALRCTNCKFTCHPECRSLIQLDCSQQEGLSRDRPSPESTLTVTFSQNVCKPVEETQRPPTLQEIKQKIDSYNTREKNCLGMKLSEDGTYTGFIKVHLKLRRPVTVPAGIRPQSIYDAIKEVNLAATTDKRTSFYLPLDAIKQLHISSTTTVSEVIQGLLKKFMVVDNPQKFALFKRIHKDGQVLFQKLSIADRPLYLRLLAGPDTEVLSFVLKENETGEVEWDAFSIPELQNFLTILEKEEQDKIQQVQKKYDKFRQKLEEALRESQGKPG
Assay: ITC

Kd: 600 nM | dH: -2.3 kcal/mol | stoichiometry N: 0.85
B1: N-SKAP1 (purified domain) (domain or fragment)
chain: MQAAALPEEIRWLLEDAEEFLAEGLRNENLSAVARDHRDHILRGFQQIKARYYWDFQPQGGDIGQDSSDDNHSGTLGLSLTSDAPFLSDYQDEGMEDIVKGAQE

Source: publication PMC3812847
